Substitutions are numbered along the chain they refer to.
Key:
PBP1B^Δ158–160 = biological target: T1, PBP1B^Δ158–160 (E. coli, UniProt P02919 46-844, Δ158–160); experiment: SPR; reducing conditions: 2 mM TCEP in the SPR running buffer, immobilised PBP1B versions incubated in it for 30 min before the assay; LpoB injected from 19.5 nM to 10 μM; apparent KD; details: both partners purified
T1 construct: PBP1B, E. coli, residues 46-844 with residues 158-160 of Loop 1 removed, made by mutagenesis of pDML924; also called Loop 1 truncation; source: E. coli BL21(DE3), purified (membrane extract, HisTrap, thrombin, HiTrap SP ion exchange)
T1 sequence (looked up): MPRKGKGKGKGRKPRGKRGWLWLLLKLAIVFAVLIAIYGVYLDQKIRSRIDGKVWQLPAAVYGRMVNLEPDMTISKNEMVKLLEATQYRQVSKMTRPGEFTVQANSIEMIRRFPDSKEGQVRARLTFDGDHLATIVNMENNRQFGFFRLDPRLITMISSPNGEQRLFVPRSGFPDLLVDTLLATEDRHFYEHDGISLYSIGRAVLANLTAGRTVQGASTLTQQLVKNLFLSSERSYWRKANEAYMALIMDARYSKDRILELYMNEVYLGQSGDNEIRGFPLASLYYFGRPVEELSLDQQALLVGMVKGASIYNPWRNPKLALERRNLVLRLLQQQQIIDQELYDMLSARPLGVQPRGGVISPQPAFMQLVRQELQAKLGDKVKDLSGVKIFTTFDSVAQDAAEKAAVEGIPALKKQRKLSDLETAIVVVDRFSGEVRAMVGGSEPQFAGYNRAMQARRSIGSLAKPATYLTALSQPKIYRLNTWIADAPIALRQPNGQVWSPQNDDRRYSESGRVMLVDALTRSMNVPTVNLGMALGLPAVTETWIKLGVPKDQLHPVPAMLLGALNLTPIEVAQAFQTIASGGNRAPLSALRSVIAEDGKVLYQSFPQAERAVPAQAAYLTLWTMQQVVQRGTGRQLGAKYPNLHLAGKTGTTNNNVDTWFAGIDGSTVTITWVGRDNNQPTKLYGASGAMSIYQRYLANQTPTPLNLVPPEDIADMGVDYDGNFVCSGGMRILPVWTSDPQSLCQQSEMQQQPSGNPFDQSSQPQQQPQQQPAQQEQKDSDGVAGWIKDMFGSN

PBP1B P162C/I644C = biological target: T2, PBP1B P162C/I644C (E. coli, UniProt P02919 46-844, P162C | I644C); experiment: as above; details: both partners purified
T2 construct: PBP1B, E. coli, residues 46-844, made by mutagenesis of pDML924; Disulphide bridge between C162 and C644 (no free thiol groups detected); reduced in the SPR assay with 2 mM TCEP; source: E. coli BL21(DE3), purified (membrane extract, HisTrap, thrombin, HiTrap SP ion exchange)
T2 sequence (looked up): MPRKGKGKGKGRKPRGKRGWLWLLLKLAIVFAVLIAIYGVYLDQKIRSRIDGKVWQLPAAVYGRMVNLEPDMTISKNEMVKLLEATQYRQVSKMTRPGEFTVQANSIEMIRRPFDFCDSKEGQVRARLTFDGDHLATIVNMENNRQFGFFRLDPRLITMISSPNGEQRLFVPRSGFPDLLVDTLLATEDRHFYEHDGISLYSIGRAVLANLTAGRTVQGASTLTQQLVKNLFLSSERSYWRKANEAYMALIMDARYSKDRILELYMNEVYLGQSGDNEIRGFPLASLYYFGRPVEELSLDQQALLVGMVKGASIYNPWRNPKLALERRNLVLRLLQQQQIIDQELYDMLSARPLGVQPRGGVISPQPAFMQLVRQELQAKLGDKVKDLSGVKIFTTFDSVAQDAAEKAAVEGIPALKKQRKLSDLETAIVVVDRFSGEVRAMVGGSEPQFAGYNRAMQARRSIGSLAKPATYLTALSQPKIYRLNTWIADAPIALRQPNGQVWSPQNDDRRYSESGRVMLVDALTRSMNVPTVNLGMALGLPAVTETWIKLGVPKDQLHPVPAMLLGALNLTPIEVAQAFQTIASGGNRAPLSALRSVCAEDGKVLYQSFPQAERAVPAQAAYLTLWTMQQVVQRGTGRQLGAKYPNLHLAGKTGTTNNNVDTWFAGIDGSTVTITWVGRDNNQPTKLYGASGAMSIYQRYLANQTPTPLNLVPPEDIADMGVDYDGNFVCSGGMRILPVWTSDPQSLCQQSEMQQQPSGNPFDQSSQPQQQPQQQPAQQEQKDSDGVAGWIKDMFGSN

PBP1B K355A = biological target: T3, PBP1B K355A (E. coli, UniProt P02919 46-844, K355A); experiment: cell-based or functional assay
T3 sequence (looked up): T2 sequence (looked up) with C117P, K310A, C599I

Kd (PBP1B^Δ158–160): 1700 nM
Kd (PBP1B P162C/I644C): 182 nM
fold activation of the GTase rate of PBP1B K355A by LpoB (PBP1B K355A): ~37 fold
B1: LpoB (natural protein, E. coli)
chain: VGQREPAPVEEVKPAPEQPAEPQQPVPTVPSVPTIPQQPGPIEHEDQTAPPAPHIRHYDWNGAMQPMVSKMLGADGVTAGSVLLVDSVNNRTNGSLNAAEATETLRNALANNGKFTLVSAQQLSMAKQQLGLSPQDSLGTRSKAIGIARNVGAHYVLYSSASGNVNAPTLQMQLMLVQTGEIIWSGKGAVSQQ
notes: LpoB, E. coli; also called lipoprotein LpoB; source: E. coli BL21(DE3), purified (HisTrap, Superdex 200), as in Egan et al. 2014

Reference: paper PMC6220978, “Induced conformational changes activate the peptidoglycan synthase PBP1B” (Molecular Microbiology, 2018)
